According to IntAct's records for PubMed 24561201:

B1: ATP-sensitive inward rectifier potassium channel 10 (Homo sapiens), P78508 (parent)
chain: MTSVAKVYYSQTTQTESRPLMGPGIRRRRVLTKDGRSNVRMEHIADKRFLYLKDLWTTFIDMQWRYKLLLFSATFAGTWFLFGVVWYLVAVAHGDLLELDPPANHTPCVVQVHTLTGAFLFSLESQTTIGYGFRYISEECPLAIVLLIAQLVLTTILEIFITGTFLAKIARPKKRAETIRFSQHAVVASHNGKPCLMIRVANMRKSLLIGCQVTGKLLQTHQTKEGENIRLNQVNVTFQVDTASDSPFLILPLTFYHVVDETSPLKDLPLRSGEGDFELVLILSGTVESTSATCQVRTSYLPEEILWGYEFTPAISLSASGKYIADFSLFDQVVKVASPSGLRDSTVRYGDPEKLKLEESLREQAEKEGSALSVRISNV

Variants of: B1
Conditions: with MAGI1, A0A8I3NPD4
Chain of MAGI1, A0A8I3NPD4 (A0A8I3NPD4 entry or part of it): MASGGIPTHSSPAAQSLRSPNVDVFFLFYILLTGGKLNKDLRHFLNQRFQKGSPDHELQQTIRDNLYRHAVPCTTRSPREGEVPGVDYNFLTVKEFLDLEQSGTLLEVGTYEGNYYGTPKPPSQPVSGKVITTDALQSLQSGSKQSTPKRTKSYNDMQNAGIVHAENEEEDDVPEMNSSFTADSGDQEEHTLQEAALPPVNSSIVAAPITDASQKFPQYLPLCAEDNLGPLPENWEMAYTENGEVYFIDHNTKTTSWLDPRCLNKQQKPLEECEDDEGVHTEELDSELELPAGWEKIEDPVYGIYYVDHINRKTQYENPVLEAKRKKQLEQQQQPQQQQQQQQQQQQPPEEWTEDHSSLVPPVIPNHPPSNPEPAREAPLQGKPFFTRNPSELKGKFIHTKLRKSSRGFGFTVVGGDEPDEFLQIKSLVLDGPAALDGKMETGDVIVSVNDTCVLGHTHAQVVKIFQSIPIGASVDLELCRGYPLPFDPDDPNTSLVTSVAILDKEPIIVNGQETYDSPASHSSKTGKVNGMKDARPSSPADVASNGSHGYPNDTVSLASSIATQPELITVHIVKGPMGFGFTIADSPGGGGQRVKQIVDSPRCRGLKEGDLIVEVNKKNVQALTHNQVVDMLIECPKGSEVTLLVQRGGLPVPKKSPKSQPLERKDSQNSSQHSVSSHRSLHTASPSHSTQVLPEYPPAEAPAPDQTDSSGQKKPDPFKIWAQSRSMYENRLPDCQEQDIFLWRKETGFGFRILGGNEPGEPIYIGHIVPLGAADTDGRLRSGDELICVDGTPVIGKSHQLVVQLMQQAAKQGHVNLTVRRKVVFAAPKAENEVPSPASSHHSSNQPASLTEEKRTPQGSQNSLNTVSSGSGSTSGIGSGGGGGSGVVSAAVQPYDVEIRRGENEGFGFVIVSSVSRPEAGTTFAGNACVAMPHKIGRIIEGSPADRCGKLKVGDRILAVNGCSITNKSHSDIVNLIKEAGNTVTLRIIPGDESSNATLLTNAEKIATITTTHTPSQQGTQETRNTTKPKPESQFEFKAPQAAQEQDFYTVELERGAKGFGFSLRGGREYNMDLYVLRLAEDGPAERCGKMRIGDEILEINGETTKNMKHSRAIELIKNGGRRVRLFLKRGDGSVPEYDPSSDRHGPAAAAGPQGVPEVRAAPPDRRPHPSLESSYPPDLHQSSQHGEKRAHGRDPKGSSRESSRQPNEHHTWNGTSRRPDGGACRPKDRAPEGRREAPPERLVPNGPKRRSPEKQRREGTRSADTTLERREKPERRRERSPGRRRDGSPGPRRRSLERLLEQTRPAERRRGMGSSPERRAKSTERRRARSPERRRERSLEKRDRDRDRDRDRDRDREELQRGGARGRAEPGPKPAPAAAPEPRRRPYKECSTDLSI

effect of a mutation on the interaction | Variant
decreasing interaction | A167V
